Results reported in article doi:10.1101/2025.10.17.683039.

Tests used:
[1] = molecular target: Enoyl-CoA carboxylase/reductase (ECR) from Burkholderia ambifaria (Burkholderia ambifaria); experiment: SEC; S200 column; each protein alone (1 mL) and a mixture of equal volumes (500 uL each) of the two proteins; peaks compared
[2] = molecular target: Enoyl-CoA carboxylase/reductase (ECR) from Mesorhizobium metallidurans (Mesorhizobium metallidurans); experiment: as above
[3] = molecular target: Enoyl-CoA carboxylase/reductase (ECR) from Mesorhizobium metallidurans (Mesorhizobium metallidurans); experiment: crystal structure; apo ECR, space group C 1 2 1, 100 K, 1.40 Å, molecular replacement with PDB 6NA3

| Substance | stoichiometry N [1] | stoichiometry N [2] | stoichiometry N [3] |
| --- | --- | --- | --- |
| Enoyl-CoA carboxylase/reductase (ECR) from Burkholderia ambifaria (enzyme) | 4 |  |  |
| Enoyl-CoA carboxylase/reductase (ECR) from Mesorhizobium metallidurans (enzyme) |  | 2 | 2 |
